Assay results from patent US20090068110A1, “ANTIBODIES TO INSULIN-LIKE GROWTH FACTOR RECEPTOR” (Genentech, Inc., priority 2006, published 2009).
“Also recorded” adds a separate entry of the source.

Molecular target: T1, human IGF-1R-ECD (Homo sapiens, UniProt P08069)
T1 construct: containing the extracellular domain (ECD, amino acids 1-902) tagged with 10 or 12 histidine residues at the carboxyl terminus; His10 or His12 (C); made in house; host or cells: CHO cells
Test: phage-competition ELISA (phage IC50)
Type: binding
Conditions: for IC50: YW95 phage-derived clones displayed as bivalent Fab-Zip on phage, read-out: phage IC50
Procedure: MAXISORP™ microtiter plates were coated with human IGF-1R-ECD at 5 μg/ml in PBS overnight and then blocked with CASEIN BLOCKER™ reagent (Pierce Biotechnology, Inc.). Phage from culture supernatants were incubated with serially diluted IGF-1R-ECD in PBS with 0.05% TWEEN 20™ surfactant (PBST) containing 1% bovine serum albumin (BSA) in a tissue-culture microtiter plate for 1 hour, after which 80 μl of the mixture was transferred to the target-coated wells for 15 minutes to capture unbound phage. The plate was washed with PBST, and HRP-conjugated anti-M13 (Amersham Pharmacia Biotech) was added (1:5000 in PBST containing 1% BSA) for 40 minutes. The plate was washed with PBST and developed by adding tetramethylbenzidine (TMB) substrate (Kirkegaard and Perry Laboratories, Gaithersburg, Md.). The absorbance at 450 nm was plotted as a function of target concentration in solution to determine an IC50. […] For the humanized hybridoma-derived clones, 2B4, 9F2, and 10H5, phage-Fab was used.
This assay was conducted as described in Section 1-II-A-(4) of this Example. For the YW95-phage-derived clones from the VH/VL phage library, phage-Fab-Zip was used.

B1: YW95.3: anti-IGF-1R phage-display clone from VH/VL library; VL SEQ ID NO:66, VH SEQ ID NO:70 (antibody, V domains shown)
VH: EVQLVESGGGLVQPGGSLRLSCAASGFTFSSYAMSWVRQAPGKGLEWVSRISPSGGSTYYADSVKGRFTISADTSKNTAYLQMNSLRAEDTAVYYCAREHYFHWGGMDVWGQGTL
VL: DIQMTQSPSSLSASVGDRVTITCRASQSISSYLAWYQQKPGKAPKLLIYGASSRASGVPSRFSGSGSGTDFTLTISSLQPEDFATYYCQQYYSSPLTFGQGTKVEIKR
modifications: sequence is synthesized
  IC50: 20 nM

B2: YW95.81: anti-IGF-1R phage-display clone from VH/VL library; VL SEQ ID NO:68, VH SEQ ID NO:72 (antibody, V domains shown)
VH: EVQLVESGGGLVQPGGSLRLSCAASGFSFSSQGISWVRQAPGKGLEWVSTISYDGSTYYADSVKGRFTISADTSKNTAYLQMNSLRAEDTAVYYCARQFMLWGKQFGMDVWGQGTL
VL: DIQMTQSPSSLSASVGDRVTITCRASQSISSYLAWYQQKPGKAPKLLIYGASSRASGVPSRFSGSGSGTDFTLTISSLQPEDFATYYCQQRFSVPFTFGQGTKVEIKR
modifications: sequence is synthesized
  IC50: 20 nM

B3: YW95.87: anti-IGF-1R phage-display clone from VH/VL library; VL SEQ ID NO:69, VH SEQ ID NO:73 (antibody, V domains shown)
VH: EVQLVESGGGLVQPGGSLRLSCAASGFTFSSYAMSWVRQAPGKGLEWVSRISPSGGSTYYADSVKGRFTISADTSKNTAYLQMNSLRAEDTAVYYCARESYYEWGAMDVWGQGTL
VL: DIQMTQSPSSLSASVGDRVTITCRASQSISSYLAWYQQKPGKAPKLLIYGASSRASGVPSRFSGSGSGTDFTLTISSLQPEDFATYYCQQYYSSPLTFGQGTKVEIKR
modifications: sequence is synthesized
  IC50: 20 nM

B4: h2B4.vX: humanized anti-IGF-1R antibody, direct HVR graft of murine 2B4; VL SEQ ID NO:44, VH SEQ ID NO:47 (antibody, V domains shown)
VH: EVQLVESGGGLVQPGGSLRLSCAASGYNLANYGLNWVRQAPGKGLEWVGWINTNTGAPTYAEEFKGRFTISADTSKNTAYLQMNSLRAEDTAVYYCARSIYYYASRYFNVWGQGTL
VL: DIQMTQSPSSLSASVGDRVTITCRASQDISNYLNWYQQKPGKAPKLLIYYTSRLHSGVPSRFSGSGSGTDFTLTISSLQPEDFATYYCQQGNTLPWTFGQGTKVEIKR
modifications: sequence is synthesized
Monovalent phage-Fab, after HVR grafting
  binding affinity (phage IC50) against IGF-1R-ECD, in words: micromolar binding affinity; also recorded: decreased into the micromolar range
